Laboratory results as given in the RNAGym collection of RNA variant scans (doi:10.1021/acssynbio.7b00057).

B1: Pistol ribozyme (parent)
chain: GGGUCGUUGUUCCAUAAUCGCGUGGAUAUGGCACGCAAGUUUCUACCGGGCACCGUAAAUGUCCGACUGGAGCCGUUCGGGCGGCUAUAAACAGACCUCAGGCCCGAAGCGUGGCGGCACCUGCCGCCGGUGGUAAAAAAGAUCGGAAGAGCACACGUCU

Variants of: B1
Assay: aptazyme ON/OFF ratio, guanine; higher = stronger switching; co-transcriptional cleavage with and without guanine

Variant	aptazyme ON/OFF ratio
GGGUCGUGCGGGGAUAAUCGCGUGGAUAUGGCACGCAAGUUUCUACCGGGCACCGUAAAUGUCCGACUGGAGCCGUUCGGGCGGCUAUAAACAGACCUCAGGCCCGAAGCGUGGCGGCACCUGCCGCCGGUGGUAAAAAAGAUCGGAAGAGCACACGUCU [U8G G9C U10G U11G C12G C13G]	1.1
GGGUCGUAGCUCGAUAAUCGCGUGGAUAUGGCACGCAAGUUUCUACCGGGCACCGUAAAUGUCCGACUGGAGCCGUUCGGGCGGCUAUAAACAGACCUCAGGCCCGAAGCGUGGCGGCACCUGCCGCCGGUGGUAAAAAAGAUCGGAAGAGCACACGUCU [U8A U10C C13G]	1.05
GGGUCGUUCCUAGAUAAUCGCGUGGAUAUGGCACGCAAGUUUCUACCGGGCACCGUAAAUGUCCGACUGGAGCCGUUCGGGCGGCUAUAAACAGACCUCAGGCCCGAAGCGUGGCGGCACCUGCCGCCGGUGGUAAAAAAGAUCGGAAGAGCACACGUCU [G9C U10C C12A C13G]	1.06
GGGUCGACAUAUCAUAAUCGCGUGGAUAUGGCACGCAAGUUUCUACCGGGCACCGUAAAUGUCCGACUGGAGCCGUUCGGGCGGCUAUAAACAGACCUCAGGCCCGAAGCGUGGCGGCACCUGCCGCCGGUGGUAAAAAAGAUCGGAAGAGCACACGUCU [U7A U8C G9A U11A C12U]	1.25
GGGUCGGUGCUGUAUAAUCGCGUGGAUAUGGCACGCAAGUUUCUACCGGGCACCGUAAAUGUCCGACUGGAGCCGUUCGGGCGGCUAUAAACAGACCUCAGGCCCGAAGCGUGGCGGCACCUGCCGCCGGUGGUAAAAAAGAUCGGAAGAGCACACGUCU [U7G U10C C12G C13U]	1.14
GGGUCGUAACGCAAUAAUCGCGUGGAUAUGGCACGCAAGUUUCUACCGGGCACCGUAAAUGUCCGACUGGAGCCGUUCGGGCGGCUAUAAACAGACCUCAGGCCCGAAGCGUGGCGGCACCUGCCGCCGGUGGUAAAAAAGAUCGGAAGAGCACACGUCU [U8A G9A U10C U11G C13A]	1.16
GGGUCGAUGCUUGAUAAUCGCGUGGAUAUGGCACGCAAGUUUCUACCGGGCACCGUAAAUGUCCGACUGGAGCCGUUCGGGCGGCUAUAAACAGACCUCAGGCCCGAAGCGUGGCGGCACCUGCCGCCGGUGGUAAAAAAGAUCGGAAGAGCACACGUCU [U7A U10C C12U C13G]	1.09
GGGUCGCACAAAGAUAAUCGCGUGGAUAUGGCACGCAAGUUUCUACCGGGCACCGUAAAUGUCCGACUGGAGCCGUUCGGGCGGCUAUAAACAGACCUCAGGCCCGAAGCGUGGCGGCACCUGCCGCCGGUGGUAAAAAAGAUCGGAAGAGCACACGUCU [U7C U8A G9C U10A U11A C12A C13G]	1.12
GGGUCGUCGUUCUAUAAUCGCGUGGAUAUGGCACGCAAGUUUCUACCGGGCACCGUAAAUGUCCGACUGGAGCCGUUCGGGCGGCUAUAAACAGACCUCAGGCCCGAAGCGUGGCGGCACCUGCCGCCGGUGGUAAAAAAGAUCGGAAGAGCACACGUCU [U8C C13U]	1.55
GGGUCGUGUUCAGAUAAUCGCGUGGAUAUGGCACGCAAGUUUCUACCGGGCACCGUAAAUGUCCGACUGGAGCCGUUCGGGCGGCUAUAAACAGACCUCAGGCCCGAAGCGUGGCGGCACCUGCCGCCGGUGGUAAAAAAGAUCGGAAGAGCACACGUCU [U8G G9U U11C C12A C13G]	1.08
GGGUCGGUCCUCAAUAAUCGCGUGGAUAUGGCACGCAAGUUUCUACCGGGCACCGUAAAUGUCCGACUGGAGCCGUUCGGGCGGCUAUAAACAGACCUCAGGCCCGAAGCGUGGCGGCACCUGCCGCCGGUGGUAAAAAAGAUCGGAAGAGCACACGUCU [U7G G9C U10C C13A]	1.14
GGGUCGCGUACAAAUAAUCGCGUGGAUAUGGCACGCAAGUUUCUACCGGGCACCGUAAAUGUCCGACUGGAGCCGUUCGGGCGGCUAUAAACAGACCUCAGGCCCGAAGCGUGGCGGCACCUGCCGCCGGUGGUAAAAAAGAUCGGAAGAGCACACGUCU [U7C U8G G9U U10A U11C C12A C13A]	1.16
GGGUCGCAAUUAUAUAAUCGCGUGGAUAUGGCACGCAAGUUUCUACCGGGCACCGUAAAUGUCCGACUGGAGCCGUUCGGGCGGCUAUAAACAGACCUCAGGCCCGAAGCGUGGCGGCACCUGCCGCCGGUGGUAAAAAAGAUCGGAAGAGCACACGUCU [U7C U8A G9A C12A C13U]	1.15
GGGUCGGGCGGACAUAAUCGCGUGGAUAUGGCACGCAAGUUUCUACCGGGCACCGUAAAUGUCCGACUGGAGCCGUUCGGGCGGCUAUAAACAGACCUCAGGCCCGAAGCGUGGCGGCACCUGCCGCCGGUGGUAAAAAAGAUCGGAAGAGCACACGUCU [U7G U8G G9C U10G U11G C12A]	1.11
GGGUCGUUCGCUUAUAAUCGCGUGGAUAUGGCACGCAAGUUUCUACCGGGCACCGUAAAUGUCCGACUGGAGCCGUUCGGGCGGCUAUAAACAGACCUCAGGCCCGAAGCGUGGCGGCACCUGCCGCCGGUGGUAAAAAAGAUCGGAAGAGCACACGUCU [G9C U10G U11C C12U C13U]	1.24
GGGUCGGGAUUUAAUAAUCGCGUGGAUAUGGCACGCAAGUUUCUACCGGGCACCGUAAAUGUCCGACUGGAGCCGUUCGGGCGGCUAUAAACAGACCUCAGGCCCGAAGCGUGGCGGCACCUGCCGCCGGUGGUAAAAAAGAUCGGAAGAGCACACGUCU [U7G U8G G9A C12U C13A]	1.27
GGGUCGCGUCGUAAUAAUCGCGUGGAUAUGGCACGCAAGUUUCUACCGGGCACCGUAAAUGUCCGACUGGAGCCGUUCGGGCGGCUAUAAACAGACCUCAGGCCCGAAGCGUGGCGGCACCUGCCGCCGGUGGUAAAAAAGAUCGGAAGAGCACACGUCU [U7C U8G G9U U10C U11G C12U C13A]	1.24
GGGUCGGGUUCGUAUAAUCGCGUGGAUAUGGCACGCAAGUUUCUACCGGGCACCGUAAAUGUCCGACUGGAGCCGUUCGGGCGGCUAUAAACAGACCUCAGGCCCGAAGCGUGGCGGCACCUGCCGCCGGUGGUAAAAAAGAUCGGAAGAGCACACGUCU [U7G U8G G9U U11C C12G C13U]	1.43
